Molecular target: human neutrophil elastase (human) (UniProt P08246)
Assay: cell-based or functional assay
Settings: scale: moles of AAT polypeptide per mole of protease

Chain of UniProt P08246 (P08246 30-247 limits assumed): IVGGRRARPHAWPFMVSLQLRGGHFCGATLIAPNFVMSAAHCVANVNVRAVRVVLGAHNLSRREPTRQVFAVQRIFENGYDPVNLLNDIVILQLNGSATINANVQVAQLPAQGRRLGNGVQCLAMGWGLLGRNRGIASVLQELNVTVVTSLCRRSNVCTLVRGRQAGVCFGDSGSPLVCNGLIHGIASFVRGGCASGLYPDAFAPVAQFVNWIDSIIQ

Row | SI against HNE (n = 3) | Substance
1 | 1.09 | Breach graft (wtAAT carrying S276K, T278E, T323E, D325N, K327E) (from UniProt P01009 41-418)
2 | 1.11 | F35 graft (wtAAT carrying L275F, I324V, M358I) (from UniProt P01009 41-418)
3 | 1.35 | Helix-F graft (wtAAT carrying G99A, Y144W, Y171A) (from UniProt P01009 41-418)
